Among the data in US20080181901A1 are decrease in endogenous ouabain-sensitive 86Rb+ uptake into intact tsA201 cells values, retold here.

This assay concerns the target endogenous Na,K-ATPase of tsA201 cells. In words: cell-based or functional assay.

With “full-length MONaKA transfected into tsA201 cells (86Rb+ uptake assay)”, the decrease in endogenous ouabain-sensitive 86Rb+ uptake into intact tsA201 cells is 19%.
